Data on two molecules can be found in PMC2758704, “Human Papillomavirus-16 E7 Interacts with Glutathione S-Transferase P1 and Enhances Its Role in Cell Survival” (PLoS ONE, 2009).

The assay deals with T1, N-6His-GSTP1 recombinant protein (human, UniProt P09211 1-210).
T1 construct: human GSTP1, ORF made by RT-PCR from HaCaT RNA, cloned through pDONR201 into pDEST17; The printed forward primer begins at the codons for Pro-Pro-Tyr-Thr (residue 2, without the first Met) and the reverse primer holds the stop codon; Gateway attB1 linker residues lie between the His tag and GSTP1; also called recombinant GSTP1; not shown: His6, N-terminal, kept
T1 sequence (P09211 whole entry): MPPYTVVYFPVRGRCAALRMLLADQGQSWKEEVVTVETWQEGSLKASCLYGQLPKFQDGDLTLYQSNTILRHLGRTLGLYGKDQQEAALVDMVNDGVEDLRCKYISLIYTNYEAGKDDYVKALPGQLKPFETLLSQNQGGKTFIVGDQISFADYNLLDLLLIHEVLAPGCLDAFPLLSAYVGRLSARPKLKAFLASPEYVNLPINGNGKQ
Kind of assay: peptide or protein array; PepSets: 30 rod-bound 12-mers of HPV-16 E7 with a 9 amino acid overlap; recombinant GSTP1 captured by each rod detected by an immunoenzyme assay with an anti-GSTP1 polyclonal antibody. Conditions: both partners purified.

Ends that are not written are not given here.

B1: HPV-16 E7 12-mer peptide aa 49–60 (peptide)
peptide: RAHYNIVTFCCK
modifications: cysteine pairing not given here; also: bound to a polypropylene rod
notes: residues 49-60 of the E7 oncoprotein of HPV-16; also called peptide 49–60; the 49–60 12-mer; source: synthetic peptide, on polypropylene rods (PepSets, Mimotopes)
With B1, the binding result is on record as “binds”.

B2: HPV-16 E7 C-terminal 12-mer peptide (30th rod, amino acids 88–99 with an added Gly) (peptide)
peptide: GIVCPICSQKPG
modifications: cysteine pairing not given here; also: bound to a polypropylene rod
notes: residues 88-98 (the C-terminus) of the E7 oncoprotein of HPV-16; a Gly added to the last C-terminal HPV-16 E7 amino acid to complete the 12-mer; The text names the region aa 89–98 in one place and 88–98 in others; also called C-terminal 88–98 peptide; C-terminal portion (aa 89–98); source: synthetic peptide, on polypropylene rods (PepSets, Mimotopes)
With B2, the binding result is on record as “binds”.
